From PMC7695167, “Targeting the Interaction between the SH3 Domain of Grb2 and Gab2” (Cells, 2020)
Values joined by “and” are separate entries in the source; they are usually repeats but may differ in a detail not shown here. Equal values may be shown once.

Molecular target: Gab2 503-524 (Homo sapiens), Q9UQC2
Sequence (Q9UQC2 503-524): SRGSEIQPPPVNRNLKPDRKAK

Kd: 100 µM and 22 µM
B1: Grb2 C-SH3, P62993 (protein)
chain: QQPTYVQALFDFDPQEDGELGFRRGDFIHVMDNSDPNWWKGACHGQTGMFPRNYVTPVNR
